{"source": "patent US20130287781A1", "about": "(GlaxoSmithKline, published 2013)", "binders": {"B1": {"name": "peptide 16 (peptide)", "peptide": "Biotin-SGSGYESIKHEPENPPPYEE"}, "B2": {"name": "Hc(G95M)Lc (antibody, human IgG1, kappa, V domains shown)", "VH": "QVQLQQPGTELVKPGASVKLSCKASGYTFTSYWMHWVKQRPGQGLEWIGNINPSNGGTNYNEKFKSKATLTVDKSSSTAYMQLSSLTSEDSAVYYCELMQGYWGQGTLVTVSS", "VL": "DIVITQDELSNPVTSGESVSISCRSSKSLLYKDGKTYLNWFLQRPGQSPQLLIYLMSTRASGVSDRFSGSGSGTDFTLEISRVKAEDVGVYYCQQLVEYPLTFGAGTKLELKR", "notes": "also called HcLc containing the G95M mutation of the CDR H3"}, "B3": {"name": "peptide 7 (biotin-SGSG-VLPDIVMEAPLNSAVP) (peptide)", "peptide": "Biotin-SGSGVLPDIVMEAPLNSAVP"}, "B4": {"name": "peptide 6 (biotin-SGSG-TPSPVLPDIVMEAPLN) (peptide)", "peptide": "Biotin-SGSGTPSPVLPDIVMEAPLN"}, "B5": {"name": "H6L13 (H6FL L13FL) (antibody, human IgG1, kappa, V domains shown)", "VH": "QVQLVQSGAEVKKPGASVKVSCKASGYTFTSYWMHWVRQAPGQGLEWIGNINPSNGGTNYNEKFKSRATMTRDTSTSTAYMELSSLRSEDTAVYYCELGQGYWGQGTLVTVSS", "VL": "DIVMTQSPLSLPVTLGQPASISCRSSKSLLYKDGKTYLNWFQQRPGQSPQLLIYLMSTRASGVPDRFSGGGSGTDFTLKISRVEAEDVGVYYCQQLVEYPLTFGQGTKLEIKR", "notes": "Human IgG1 (L235A, G237A, EU Index) / kappa; also called H6L13 with VH CDR3 GQGY"}, "B6": {"name": "H100L100 (antibody, V domains shown)", "VH": "B5 VH with G101S", "VL": "DIVMTQSPLSLPVTLGQPASISCRSSKSLLYKDGKTYLNWFRQRPGQSPQLLIYLMSTRASGVPDRFSGGGSGTDFTLKISRVEAEDVGVYYCQQLVEYPLTFGQGTKLEIK", "notes": "Full length versions of the heavy and light chains were expressed in CHO cells; H100 is H6 VH with G101S (Kabat), L100 is L13 VL with Q37R (Kabat); also called G101S/Q37R variant"}, "B7": {"name": "H6L13 variant with VH CDR3 GLGY (antibody, human IgG1, kappa, V domains shown)", "VH": "B5 VH with Q100L", "VL": "B5 VL", "notes": "Single point variant of H6FL with L13FL"}, "B8": {"name": "H6L13 variant with VH CDR3 IQGY (antibody, human IgG1, kappa, V domains shown)", "VH": "B5 VH with G99I", "VL": "B5 VL", "notes": "as for B7"}, "B9": {"name": "H6L13 variant with VH CDR3 GQLY (antibody, human IgG1, kappa, V domains shown)", "VH": "B5 VH with G101L", "VL": "B5 VL", "notes": "as for B7"}, "B10": {"name": "H6L13 variant with VH CDR3 GDGY (antibody, human IgG1, kappa, V domains shown)", "VH": "B5 VH with Q100D", "VL": "B5 VL", "notes": "as for B7"}, "B11": {"name": "H6L13 variant with VH CDR3 GSGY (antibody, human IgG1, kappa, V domains shown)", "VH": "B5 VH with Q100S", "VL": "B5 VL", "notes": "as for B7"}, "B12": {"name": "H16L16 (antibody, human IgG1, kappa, V domains shown)", "VH": "B5 VH with R38K, A40R, R67K, M70L, R72V, T74K", "VL": "B5 VL with L11N, A19V, Q42L", "notes": "IgG1 (L235A, G237A) / kappa; CAMPATH-1H signal (1-19) left out"}, "B13": {"name": "H6L13 variant with VH CDR3 GQSY (antibody, human IgG1, kappa, V domains shown)", "VH": "B5 VH with G101S", "VL": "B5 VL", "notes": "as for B7"}}, "key": {"H28L16": {"target": "T1, H28L16", "T1 construct": "IgG1 (L235A, G237A) / kappa; CAMPATH-1H signal (1-19) left out; also called H28FL L16FL; NOGO H28L16", "T1 sequence (light, as listed by the source)": "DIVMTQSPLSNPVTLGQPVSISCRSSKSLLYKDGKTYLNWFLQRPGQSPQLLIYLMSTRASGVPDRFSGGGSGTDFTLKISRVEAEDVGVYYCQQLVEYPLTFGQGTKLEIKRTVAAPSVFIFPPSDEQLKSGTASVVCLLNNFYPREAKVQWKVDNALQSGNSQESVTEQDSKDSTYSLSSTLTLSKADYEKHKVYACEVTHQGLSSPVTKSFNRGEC", "experiment": "competition ELISA: H28L16 captured on anti-human IgG, peptide pre-mixed with GST-human NOGO-A56 (1 ug/ml), bound NOGO detected with anti-GST-HRP", "experimental": "The plates were rinsed 3 times with TBS containing 0.05% Tween (TBST) then blocked with 1% BSA in TBST at room temperature for 1 hour. […] The plates were washed 3 times with TBST. Peptides (from 0 to 100 g/ml) and GST-human NOGO-A56 at a concentration of 1 ug/ml (diluted in 1% BSA in TBST) were pre-mixed prior to addition into the wells and incubated at room temperature for 1 hour. The plates were washed 3 times with TBST then incubated for 1 hour with rabbit anti-GST peroxidase conjugate (Sigma, #A7340, 1:2000, diluted in 1% BSA in TBST) for 1 hour. The plates were washed 3 times with TBST and then incubated with 50 l OPD peroxidase substrate (Sigma) per well for 10 minutes. The colour reaction was stopped by the addition of 25 l concentrated H₂SO₄. Absorbance at 490 nm was measured using a plate reader."}, "GST-human NOGO-A56 [1]": {"target": "T2, GST-human NOGO-A56 (human)", "T2 construct": "Expressed in E. coli BL21 from pGEX-6P1 and purified on glutathione-sepharose; the GST tag is part of the protein in the assays; also called GST-Nogo-A 5+6; GST Nogo-A 5 + 6", "T2 sequence (chain, as listed by the source limits assumed)": "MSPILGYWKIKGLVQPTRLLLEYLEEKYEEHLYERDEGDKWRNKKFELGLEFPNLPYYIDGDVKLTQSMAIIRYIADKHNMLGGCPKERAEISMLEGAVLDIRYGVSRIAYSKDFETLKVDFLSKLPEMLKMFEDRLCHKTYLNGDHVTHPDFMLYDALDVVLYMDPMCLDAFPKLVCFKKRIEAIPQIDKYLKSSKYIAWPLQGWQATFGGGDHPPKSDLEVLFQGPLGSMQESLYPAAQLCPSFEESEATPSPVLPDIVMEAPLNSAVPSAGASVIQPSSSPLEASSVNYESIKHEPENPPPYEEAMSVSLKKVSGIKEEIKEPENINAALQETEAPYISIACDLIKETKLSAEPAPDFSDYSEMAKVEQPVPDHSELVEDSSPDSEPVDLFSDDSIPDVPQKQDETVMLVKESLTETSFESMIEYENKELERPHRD", "experiment": "SPR (Biacore) off-rate ranking on GST-human NOGO-A56 chip, one experiment", "experimental": "(§1) GST-human NOGO-A56 was immobilised to a CM5 chip by primary amine coupling using the Biacore Wizard program designed for targeted immobilisation levels. The CM5 sensor surface was activated by passing a solution of 50 mM N-hydroxy-succinimide (NHS) and 200 mM N-ethyl-N′-dimethylaminopropyl carbonide (EDC). Then GST-human NOGO-A56 in sodium acetate buffer, pH5.0 or pH 4.5, was passed over the chip and immobilised. After immobilisation was complete any still activated esters were blocked by an injection of 1M ethanolamine hydrochloride, pH8.5.\nThe GST-human NOGO-A56 chip was prepared as for kinetic analysis. Cell supernatants where taken directly from transient transfections of CHO-K1 cells. These were passed directly over the sensor surface and the interaction measured. A mock transfected cell supernatant was used for double referencing to remove any artefacts due to the tissue culture media. All runs were referenced against a blanked sensor surface (one that had been activated and blocked as described earlier but had no addition of ligand). Analysis of binding was carried out using the BIAevaluation kinetic analysis software version 4.1."}, "GST-human NOGO-A56 [2]": {"target": "T2, GST-human NOGO-A56", "experiment": "direct ELISA, GST-human NOGO-A56 coated at 1.0 mcg/ml, purified antibody, OD490", "experimental": "(§2) Wells were rinsed once with TBS+0.05% Tween (TBST) then incubated with 2% BSA in TBST to block non-specific binding sites at room temperature for 1 hour. Antibodies were diluted in TBST+2% BSA to 10 μg/ml and ½ dilutions made from this. Antibodies were added to wells in duplicate and incubated at room temperature for 1 hour. […] The wells were washed three times with TBST and then incubated with 100 μl OPD peroxidase substrate (Sigma) per well for 10 minutes. The colour reaction was stopped by the addition of 25 μl concentrated H₂SO₄. Optical density at 490 nm was measured using a plate reader. Background values read from wells with no antibody were subtracted."}, "GST-human NOGO-A56 [3]": {"target": "T2, GST-human NOGO-A56", "experiment": "SPR (Biacore), NOGO amine-coupled to CM5, antibody flowed over", "experimental": "as §1"}, "GST-human NOGO-A56 [4]": {"target": "T2, GST-human NOGO-A56", "experiment": "direct ELISA, GST-human NOGO-A56 coated at 1.0 mcg/ml, purified antibody, OD490", "remark": "listed apart in the source", "experimental": "as §2"}, "GST-human NOGO-A56 [5]": {"target": "T2, GST-human NOGO-A56", "experiment": "SPR (Biacore) off-rate on NOGO chip, panel of H6FL CDR H3 variants with L13FL"}, "GST-human NOGO-A56 [6]": {"target": "T2, GST-human NOGO-A56", "experiment": "SPR (Biacore), GST-human NOGO-A56 amine-coupled to CM5, antibody flowed over, 37 C", "experimental": "as §1\n(§3) The anti-NOGO mAbs were diluted down in HBS-EP (10 mM HEPES, pH 7.4, 150 mM NaCl, 3 mM EDTA, and 0.005% P-20 surfactant) for the BIAcore 3000 or HBS-EP+ (10 mM HEPES, pH 7.4, 150 mM NaCl, 3 mM EDTA, and 0.05% P-20 surfactant) in the case of the T100 and binding studies were carried out at range of defined antibody concentrations. All runs were referenced against a blanked sensor surface (one that had been activated and blocked as described earlier but had no addition of ligand). Analysis of binding was carried out using the BIAevaluation kinetic analysis software version 4.1 for the BIAcore 3000 and T100 kinetic analysis software version 1.0. […] Unless otherwise stated, the BIAcore experiments were performed at 25° C."}, "GST-human NOGO-A56 [7]": {"target": "T2, GST-human NOGO-A56", "experiment": "SPR (Biacore), GST-human NOGO-A56 amine-coupled to CM5, antibody flowed over, 25 C", "experimental": "as §1, §3"}}, "note": "Numbering of substitutions follows the chain as printed. Names and notes keep the numbering of the source. Like-named read-outs stand apart in the source and are kept apart here. Where no end group is shown, it is not given here. The star is where a group is joined. Biotin = O=C1N[C@H]2[C@H](CS[C@H]2CCCCC(=O)*)N1", "data": [{"binder": "B1", "values": [{"measurement": "binding result", "setting": "H28L16", "value": "no binding (tested: about 33 mcg/ml)"}]}, {"binder": "B2", "values": [{"measurement": "koff", "setting": "GST-human NOGO-A56 [1]", "value": 0.000614, "unit": "s⁻¹"}]}, {"binder": "B3", "values": [{"measurement": "IC50 (read off the curve)", "setting": "H28L16", "value": "~0.9", "unit": "µg/mL"}]}, {"binder": "B4", "values": [{"measurement": "binding result", "setting": "H28L16", "value": "binds"}]}, {"binder": "B5", "values": [{"measurement": "EC50 (read off the curve)", "setting": "GST-human NOGO-A56 [2]", "value": "~0.1", "unit": "µg/mL"}, {"measurement": "Kd", "setting": "GST-human NOGO-A56 [3]", "value": 6.97, "unit": "nM"}, {"measurement": "koff", "setting": "GST-human NOGO-A56 [3]", "value": 0.00722, "unit": "s⁻¹"}, {"measurement": "kon", "setting": "GST-human NOGO-A56 [3]", "value": "1.04e+06", "unit": "M⁻¹ s⁻¹"}, {"measurement": "koff", "setting": "GST-human NOGO-A56 [1]", "value": 0.0138, "unit": "s⁻¹"}, {"measurement": "EC50 (read off the curve)", "setting": "GST-human NOGO-A56 [4]", "value": "~0.1", "unit": "µg/mL"}, {"measurement": "koff", "setting": "GST-human NOGO-A56 [5]", "value": 0.0198, "unit": "s⁻¹"}]}, {"binder": "B6", "values": [{"measurement": "Kd", "setting": "GST-human NOGO-A56 [3]", "value": 0.396, "unit": "nM"}, {"measurement": "koff", "setting": "GST-human NOGO-A56 [3]", "value": 0.00507, "unit": "s⁻¹"}, {"measurement": "kon", "setting": "GST-human NOGO-A56 [3]", "value": "1.28e+07", "unit": "M⁻¹ s⁻¹"}]}, {"binder": "B7", "values": [{"measurement": "koff", "setting": "GST-human NOGO-A56 [5]", "value": 0.019, "unit": "s⁻¹"}]}, {"binder": "B8", "values": [{"measurement": "koff", "setting": "GST-human NOGO-A56 [5]", "value": 0.0172, "unit": "s⁻¹"}]}, {"binder": "B9", "values": [{"measurement": "koff", "setting": "GST-human NOGO-A56 [5]", "value": 0.0132, "unit": "s⁻¹"}]}, {"binder": "B10", "values": [{"measurement": "koff", "setting": "GST-human NOGO-A56 [5]", "value": 0.0212, "unit": "s⁻¹"}]}, {"binder": "B11", "values": [{"measurement": "koff", "setting": "GST-human NOGO-A56 [5]", "value": 0.0207, "unit": "s⁻¹"}]}, {"binder": "B12", "values": [{"measurement": "Kd", "setting": "GST-human NOGO-A56 [6]", "value": 1.16, "unit": "nM"}, {"measurement": "koff", "setting": "GST-human NOGO-A56 [6]", "value": 0.00616, "unit": "s⁻¹"}, {"measurement": "kon", "setting": "GST-human NOGO-A56 [6]", "value": "5.31e+06", "unit": "M⁻¹ s⁻¹"}, {"measurement": "EC50 (read off the curve)", "setting": "GST-human NOGO-A56 [4]", "value": "~0.08", "unit": "µg/mL"}, {"measurement": "Kd", "setting": "GST-human NOGO-A56 [7]", "value": 1.08, "unit": "nM"}, {"measurement": "koff", "setting": "GST-human NOGO-A56 [7]", "value": 0.00372, "unit": "s⁻¹"}, {"measurement": "kon", "setting": "GST-human NOGO-A56 [7]", "value": "3.43e+06", "unit": "M⁻¹ s⁻¹"}]}, {"binder": "B13", "values": [{"measurement": "koff", "setting": "GST-human NOGO-A56 [5]", "value": 0.0186, "unit": "s⁻¹"}]}]}
